Source: patent US20160264649A1

Experiments:
Test in all cases: cell-based or functional assay
[1] = target: HIV-1 MGRM-AG-002 Env (HIV-1)
[2] = target: HIV-1 92BR020 Env (HIV-1)
[3] = target: HIV-1 98CN006 Env on pseudovirus (HIV-1)
[4] = target: HIV-1 MGRM-C-001 Env on pseudovirus (HIV-1)
[5] = target: HIV-1 MGRM-D-002 Env (HIV-1)
[6] = target: HIV-1 MGRM-Chronic-B-008 Env on pseudovirus (HIV-1)
[7] = target: HIV-1 MGRM-AE-007 Env (HIV-1)
[8] = target: HIV-1 MGRM-D-008 Env (HIV-1)
[9] = target: HIV-1 MGRM-C-008 Env on pseudovirus (HIV-1)
[10] = target: HIV-1 MGRM-G-015 Env (HIV-1)
HIV-1 APV-6 Env (HIV-1) = target: HIV-1 APV-6 Env (HIV-1)
HIV-1 APV-17 Env (HIV-1) = target: HIV-1 APV-17 Env (HIV-1)
aMLV envelope = target: aMLV envelope
[11] = target: HIV-1 MGRM-C-025 Env on pseudovirus (HIV-1)
[12] = target: HIV-1 MGRM-D-005 Env (HIV-1)
[13] = target: HIV-1 94UG103 Env (HIV-1)
[14] = target: HIV-1 MGRM-AE-006 Env (HIV-1)
[15] = target: HIV-1 MGRM-G-013 Env (HIV-1)
HIV-1 APV-13 Env (HIV-1) = target: HIV-1 APV-13 Env (HIV-1)
[16] = target: HIV-1 MGRM-C-020 Env on pseudovirus (HIV-1)
[17] = target: HIV-1 MGRM-Chronic-B-004 Env on pseudovirus (HIV-1)
[18] = target: HIV-1 MGRM-G-009 Env (HIV-1)
[19] = target: HIV-1 MGRM-G-025 Env (HIV-1)
[20] = target: HIV-1 MGRM-C-022 Env on pseudovirus (HIV-1)
[21] = target: HIV-1 MGRM-AG-013 Env (HIV-1)
[22] = target: HIV-1 MGRM-C-012 Env on pseudovirus (HIV-1)
[23] = target: HIV-1 APV_17 Env on pseudovirus (HIV-1)
[24] = target: HIV-1 MGRM-D-016 Env (HIV-1)
[25] = target: HIV-1 MGRM-AG-005 Env (HIV-1)
[26] = target: HIV-1 MGRM-C-002 Env on pseudovirus (HIV-1)
[27] = target: HIV-1 MGRM-F1-017 Env (HIV-1)
[28] = target: HIV-1 92TH021 Env (HIV-1)
[29] = target: HIV-1 VLGCB3 Env on pseudovirus (HIV-1)
[30] = target: HIV-1 MGRM-F1-015 Env (HIV-1)
[31] = target: HIV-1 MGRM-G-016 Env (HIV-1)
[32] = target: HIV-1 MGRM-Chronic-B-023 Env on pseudovirus (HIV-1)
[33] = target: HIV-1 MGRM-C-019 Env on pseudovirus (HIV-1)
[34] = target: HIV-1 MGRM-AE-008 Env (HIV-1)
[35] = target: HIV-1 97ZA012 Env on pseudovirus (HIV-1)
[36] = target: HIV-1 MGRM-F1-004 Env (HIV-1)
[37] = target: HIV-1 MGRM-Chronic-B-001 Env on pseudovirus (HIV-1)
[38] = target: HIV-1 MGRM-C-010 Env on pseudovirus (HIV-1)
[39] = target: HIV-1 MGRM-AG-011 Env (HIV-1)
[40] = target: HIV-1 MGRM-F1-018 Env (HIV-1)
[41] = target: HIV-1 MGRM-D-004 Env (HIV-1)
[42] = target: HIV-1 MGRM-AE-002 Env (HIV-1)
[43] = target: HIV-1 MGRM-C-009 Env on pseudovirus (HIV-1)
[44] = target: HIV-1 MGRM-A-008 Env (HIV-1)
[45] = target: HIV-1 MGRM-A-001 Env (HIV-1)
[46] = target: HIV-1 MGRM-A-005 Env (HIV-1)
[47] = target: HIV-1 MGRM-A-012 Env (HIV-1)
[48] = target: HIV-1 MGRM-A-004 Env (HIV-1)

Work on b12 (antibody) yielded an IC50 (µg/ml), pseudovirus neutralization [1] of 0.89 µg/mL, a neutralization IC50 [2] of 27.5 µg/mL and a neutralization IC90 [2] greater than 50 µg/mL. It also gave an IC50 [3] greater than 50 µg/mL, an IC50 [4] greater than 50 µg/mL and an IC50 (µg/ml), pseudovirus neutralization [5] greater than 50 µg/mL. It also gave an IC50 [6] of 2.82 µg/mL, an IC50 (µg/ml), pseudovirus neutralization [7] greater than 50 µg/mL and an IC50 (µg/ml), pseudovirus neutralization [8] greater than 50 µg/mL. The IC50 [9] was 1.51 µg/mL, the IC50 (µg/ml), pseudovirus neutralization [10] was greater than 50 µg/mL and the neutralization IC50 (HIV-1 APV-6 Env (HIV-1)) was greater than 25 µg/mL. For the same substance, the neutralization IC90 (HIV-1 APV-6 Env (HIV-1)) was greater than 50 µg/mL, the neutralization IC50 (HIV-1 APV-17 Env (HIV-1)) was greater than 25 µg/mL and the neutralization IC90 (HIV-1 APV-17 Env (HIV-1)) was greater than 50 µg/mL. The neutralization IC50 (aMLV envelope) was greater than 50 µg/mL, the neutralization IC90 (aMLV envelope) was greater than 50 µg/mL and the IC50 [11] was greater than 50 µg/mL. For the same substance, the IC50 (µg/ml), pseudovirus neutralization [12] was greater than 50 µg/mL, the neutralization IC50 [13] was 3.54 µg/mL and the neutralization IC90 [13] was 47.3 µg/mL. For the same substance, the IC50 (µg/ml), pseudovirus neutralization [14] was greater than 50 µg/mL, the IC50 (µg/ml), pseudovirus neutralization [15] was greater than 50 µg/mL and the neutralization IC50 (HIV-1 APV-13 Env (HIV-1)) was greater than 25 µg/mL. The neutralization IC90 (HIV-1 APV-13 Env (HIV-1)) was greater than 50 µg/mL, the IC50 [16] was greater than 50 µg/mL and the IC50 [17] was 0.26 µg/mL. The IC50 (µg/ml), pseudovirus neutralization [18] was greater than 50 µg/mL, the IC50 (µg/ml), pseudovirus neutralization [19] was greater than 50 µg/mL and the IC50 [20] was greater than 50 µg/mL. For the same substance, the IC50 (µg/ml), pseudovirus neutralization [21] was greater than 50 µg/mL, the IC50 [22] was greater than 50 µg/mL and the IC50 [23] was greater than 50 µg/mL. The IC50 (µg/ml), pseudovirus neutralization [24] was 1.12 µg/mL, the IC50 (µg/ml), pseudovirus neutralization [25] was greater than 50 µg/mL and the IC50 [26] was greater than 50 µg/mL. For the same substance, the IC50 (pseudovirus neutralization) [27] was greater than 50 µg/mL, the neutralization IC50 [28] was 9.99 µg/mL and the neutralization IC90 [28] was greater than 50 µg/mL. For the same substance, the IC50 [29] was 0.15 µg/mL, the IC50 (pseudovirus neutralization) [30] was greater than 50 µg/mL and the IC50 (µg/ml), pseudovirus neutralization [31] was greater than 50 µg/mL. For the same substance, the IC50 [32] was greater than 50 µg/mL, the IC50 [33] was greater than 50 µg/mL and the IC50 (µg/ml), pseudovirus neutralization [34] was greater than 50 µg/mL. For the same substance, the IC50 [35] was greater than 50 µg/mL, the IC50 (pseudovirus neutralization) [36] was greater than 50 µg/mL and the IC50 [37] was 0.75 µg/mL. It also gave an IC50 [38] greater than 50 µg/mL, an IC50 (µg/ml), pseudovirus neutralization [39] greater than 50 µg/mL and an IC50 (pseudovirus neutralization) [40] greater than 50 µg/mL. It also gave an IC50 (µg/ml), pseudovirus neutralization [41] greater than 50 µg/mL, an IC50 (µg/ml), pseudovirus neutralization [42] of 17.1 µg/mL and an IC50 [43] greater than 50 µg/mL. The neutralization IC50 [44] was greater than 50 µg/mL, the neutralization IC50 [45] was greater than 50 µg/mL and the neutralization IC50 [46] was 3.64 µg/mL. It also gave a neutralization IC50 [47] greater than 50 µg/mL and a neutralization IC50 [48] greater than 50 µg/mL.

1496_C09 (PG9) (TCN-109) (antibody) showed an IC50 (µg/ml), pseudovirus neutralization [1] of 0.04 µg/mL, an IC50 (µg/ml), pseudovirus neutralization [5] of 0.027 µg/mL and an IC50 [6] of 6.66 µg/mL. For the same substance, the IC50 (µg/ml), pseudovirus neutralization [8] was 6.86 µg/mL, the IC50 (µg/ml), pseudovirus neutralization [10] was 1.51 µg/mL and the neutralization IC50 (HIV-1 APV-6 Env (HIV-1)) was 0.0869 µg/mL. It also gave a neutralization IC90 (HIV-1 APV-6 Env (HIV-1)) of 1.96 µg/mL, a neutralization IC50 (HIV-1 APV-17 Env (HIV-1)) of 26.4 µg/mL and an IC50 [11] of 0.17 µg/mL. It also gave an IC50 (µg/ml), pseudovirus neutralization [12] of 0.59 µg/mL, a neutralization IC50 [13] of 0.173 µg/mL and a neutralization IC90 [13] of 3.37 µg/mL. For the same substance, the IC50 (µg/ml), pseudovirus neutralization [14] was 0.05 µg/mL, the IC50 (µg/ml), pseudovirus neutralization [18] was 4.9 µg/mL and the IC50 [20] was 0.19 µg/mL. It also gave an IC50 (µg/ml), pseudovirus neutralization [21] of 0.23 µg/mL, an IC50 [22] of 0.24 µg/mL and an IC50 [23] of 14.6 µg/mL. For the same substance, the IC50 (µg/ml), pseudovirus neutralization [24] was 0.1 µg/mL, the IC50 (µg/ml), pseudovirus neutralization [25] was 29.7 µg/mL and the IC50 (µg/ml), pseudovirus neutralization [28] was 0.09 µg/mL. For the same substance, the neutralization IC50 [28] was 0.111 µg/mL, the neutralization IC90 [28] was 1.99 µg/mL and the IC50 (µg/ml), pseudovirus neutralization [31] was 0.4 µg/mL. For the same substance, the IC50 [32] was 0.04 µg/mL, the IC50 [33] was 0.01 µg/mL and the IC50 (µg/ml), pseudovirus neutralization [34] was 10.6 µg/mL. It also gave an IC50 [35] of 1.27 µg/mL, an IC50 [38] of 12.4 µg/mL and an IC50 (µg/ml), pseudovirus neutralization [39] of 0.01 µg/mL. The IC50 (pseudovirus neutralization) [40] was 0.03 µg/mL, the IC50 (µg/ml), pseudovirus neutralization [41] was 0.03 µg/mL and the IC50 (µg/ml), pseudovirus neutralization [42] was 0.04 µg/mL. The neutralization IC50 [47] was 11.2 µg/mL.
